Self-cleavage data for 167 variants are collected here from the RNAGym collection of RNA variant scans (doi:10.7554/elife.80360).

B1: CPEB3 Ribozyme (parent)
chain: GGGGGCCACAGCAGAAGCGUUCACGUCGCGGCCCCUGUCAGAUUCUGGUGAAUCUGCGAAUUCUGCUGU

Variants of B1 are the subject of the series. In words: self-cleavage, relative activity (ratio to wild type); higher = more cleavage; co-transcriptional.
Take G41U U69C: the self-cleavage came out at 0.697.
G41C U69A: the self-cleavage came out at 0.932.
Next, A42C G56A: 0.812; G41A U49A: 0.885; G41U A52U: 0.526.
Regarding G41A G65A, the self-cleavage came to 0.482.
The value for G41U G48A was 0.998; that for G41C C63U was 0.685; that for G41C C63G was 0.382.
As to G41C U67C, the self-cleavage was determined as 0.776.
Regarding G41U G65C, the self-cleavage worked out at 0.272.
On to A42C C63U, for which the self-cleavage came out at 0.926.
With A40U C57A, the self-cleavage was 0.333.
In the case of A40U C57U, the self-cleavage was 0.302.
Next, A40G U67A: 0.941; A40U U53G: 0.378; A40U U53A: 0.302.
For G41A G56A, the self-cleavage was 0.77.
For A40U A59C, the self-cleavage stood at 0.285.
G41A A59G: the self-cleavage came to 0.774.
The value for G41A A59U was 0.332; that for G41A U55C was 0.491.
As for G41A U53C, the self-cleavage came out at 0.318.
Take G41C G48A: the self-cleavage is 0.949.
For G41C U62A, the self-cleavage is 0.294.
As for A40U U61C, the self-cleavage was determined as 0.258.
With A40U U61A, the self-cleavage was found to be 0.5.
As to G41U A59U, the self-cleavage was determined as 0.453.
With G41A A52C, the self-cleavage was 0.388.
Consider A42C U46A, for which the self-cleavage was 0.967.
In the case of G41C U64C, the self-cleavage stood at 0.394.
G41U G47A: the self-cleavage was found to be 1.02.
On to G41U U44C, for which the self-cleavage is 0.366.
Consider A40G G68U, for which the self-cleavage was 0.987.
Next, A42C A51U: 0.952.
Next, A42C A51C: 0.832; G41U A60C: 0.414; A42C G65U: 0.574.
In the case of A42C G65C, the self-cleavage was 0.474.
G41A G68A: the self-cleavage was determined as 0.979.
As to G41C U55A, the self-cleavage is 0.549.
G41C U55G: the self-cleavage was found to be 0.369.
With A40G U62G, the self-cleavage was found to be 0.858.
Consider A40G U62A, for which the self-cleavage was 0.837.
In the case of A40U U43G, the self-cleavage is 0.299.
For G41U C66U, the self-cleavage stood at 0.75.
As for A40G U64G, the self-cleavage came to 0.796.
Consider A40G U64C, for which the self-cleavage worked out at 0.737.
With A40G U44A, the self-cleavage amounted to 0.907.
The value for G41U U55A was 0.551; that for G41U U55C was 0.34.
Next, G41A G50C: 0.453; G41A G50U: 0.686; G41A G47A: 0.979.
For G41A G47U, the self-cleavage was found to be 0.98.
As to A40G G65U, the self-cleavage was found to be 0.519.
For A42C G47C, the self-cleavage turned out to be 0.977.
On to A42C G47U, for which the self-cleavage is 0.958.
With A42C C54A, the self-cleavage was determined as 0.707.
For A42C C54U, the self-cleavage amounted to 0.822.
Next, A42C U43C: 0.777; G41A U61C: 0.257.
G41A C45A: the self-cleavage was 0.37.
As to G41A C45G, the self-cleavage turned out to be 0.537.
On to G41C G56C, for which the self-cleavage came out at 0.417.
Regarding G41A A51G, the self-cleavage was 0.797.
In the case of G41A A51C, the self-cleavage amounted to 0.483.
Take G41C U61A: the self-cleavage stood at 0.484.
In the case of G41A U44C, the self-cleavage was 0.413.
With G41A U44A, the self-cleavage was determined as 0.302.
For the variant G41A A60G, the self-cleavage came out at 0.464.
With A40U G50U, the self-cleavage worked out at 0.749.
Next, G41C U46G: 0.855.
As for G41C U46C, the self-cleavage was determined as 0.63.
For A40G U55G, the self-cleavage amounted to 0.757.
On to A40G U55A, for which the self-cleavage turned out to be 0.858.
Consider A40G U55C, for which the self-cleavage was 1.
Next, G41A G48C: 0.876; G41A G48U: 0.987; G41U G50U: 0.845.
For the variant G41U G50A, the self-cleavage was 0.704.
Consider G41U U67G, for which the self-cleavage is 0.865.
With G41U U67A, the self-cleavage was determined as 0.888.
The value for A40U U64C was 0.388; that for A40U G56C was 0.475; that for A40U G56U was 0.552.
As for G41A G58C, the self-cleavage worked out at 0.86.
G41A G58A: the self-cleavage turned out to be 0.906.
With G41A G58U, the self-cleavage was determined as 0.921.
Take G41C G58U: the self-cleavage was found to be 0.962.
Next, G41C G58C: 0.85; G41C A42G: 0.754.
Turning to A42C A60C, the self-cleavage was found to be 0.503.
As for A42C A60G, the self-cleavage came to 0.771.
As for G41U A51C, the self-cleavage turned out to be 0.588.
G41A U67C: the self-cleavage came to 0.818.
As for G41A U64A, the self-cleavage was 0.419.
The value for G41A A42U was 0.49; that for G41C A59U was 0.271; that for A40U G58A was 0.797.
Take A40U G58U: the self-cleavage worked out at 0.931.
Regarding A40U G58C, the self-cleavage stood at 0.881.
In the case of A40U C63A, the self-cleavage was determined as 0.364.
As for G41C G47C, the self-cleavage turned out to be 0.939.
With G41C G47U, the self-cleavage was determined as 0.935.
As for G41U U49G, the self-cleavage was 0.848.
Regarding G41U U49A, the self-cleavage was 0.97.
As to A40U C54A, the self-cleavage was 0.435.
Regarding G41C U49G, the self-cleavage amounted to 0.899.
As to G41A U46G, the self-cleavage turned out to be 0.904.
As for G41U C63G, the self-cleavage is 0.43.
On to G41U C63A, for which the self-cleavage amounted to 0.37.
Take G41C U53G: the self-cleavage was 0.552.
Take A40U: the self-cleavage came to 0.901.
Regarding A40U G48A, the self-cleavage came to 0.977.
On to G41C C54A, for which the self-cleavage is 0.931.
Turning to G41C C54U, the self-cleavage was found to be 0.906.
Consider G41C C54G, for which the self-cleavage came to 0.98.
Regarding A42C C66A, the self-cleavage came to 0.57.
On to G41U U53A, for which the self-cleavage was 0.616.
As to A40U A52C, the self-cleavage is 0.561.
Next, A40U A52U: 0.477; A40U G47U: 0.912.
On to A40U G47A, for which the self-cleavage came to 0.885.
For the variant A42C G50U, the self-cleavage is 0.932.
Take A42C A59G: the self-cleavage stood at 0.961.
Take A42C A59U: the self-cleavage turned out to be 0.633.
Turning to A42C A59C, the self-cleavage came out at 0.528.
Take G41U U62G: the self-cleavage is 0.391.
Next, G41A C54A: 0.904; G41U G56C: 0.357.
With G41U G56U, the self-cleavage came to 0.343.
Consider G41A U43G, for which the self-cleavage is 0.241.
The value for A40U U44A was 0.609.
Next, G41C C57A: 0.285.
Take G41C C57G: the self-cleavage is 0.249.
Consider A40U G41C, for which the self-cleavage was 0.592.
In the case of A40U G41U, the self-cleavage worked out at 0.664.
Take G41C A51G: the self-cleavage was 0.687.
Next, A40U A60G: 0.47; G41U A42U: 0.862.
Regarding G41U A42C, the self-cleavage worked out at 0.389.
On to G41U A42G, for which the self-cleavage worked out at 0.777.
In the case of G41A C66U, the self-cleavage turned out to be 0.756.
On to G41A C66A, for which the self-cleavage was 0.388.
Next, G41C: 0.891; G41A: 0.906.
With G41U, the self-cleavage was found to be 0.928.
On to G41A C63A, for which the self-cleavage was found to be 0.329.
Regarding G41C G50U, the self-cleavage was 0.698.
As to G41C G50A, the self-cleavage was found to be 0.693.
With G41C G50C, the self-cleavage stood at 0.325.
Turning to G41U C45U, the self-cleavage was 0.715.
With G41U C57A, the self-cleavage was determined as 0.303.
In the case of G41U C57G, the self-cleavage turned out to be 0.328.
Regarding G41U C57U, the self-cleavage was 0.243.
In the case of A42C G48U, the self-cleavage came out at 0.988.
For the variant A42C G48A, the self-cleavage stood at 0.965.
Turning to A42C G48C, the self-cleavage amounted to 0.851.
Turning to A40G G56C, the self-cleavage was determined as 0.779.
In the case of G41C A52G, the self-cleavage was 0.609.
For the variant G41C A52U, the self-cleavage was found to be 0.415.
As to G41C C66A, the self-cleavage came out at 0.285.
G41C C66U: the self-cleavage was found to be 0.75.
G41C G65C: the self-cleavage was 0.316.
For the variant A42C G58U, the self-cleavage is 1.01.
For the variant A42C G58A, the self-cleavage amounted to 0.925.
